Data from PMC12415261 (Proceedings of the National Academy of Sciences of the …, 2025).

B1: ALK3-Fc (homodimeric Fc-fusion of ALK3-ECD) [human] / Recombinant human BMP6, mammalian expressed (glycosylated) [modified: N-linked glycosylation at Asn454 (prehelical loop); N-linked glycosylation at Asn454 (prehelical loop)] [human] (parent complex)
chain 1: QNLDSMLHGTGMKSDSDQKKSENGVTLAPEDTLPFLKCYCSGHCPDDAINNTCITNGHCFAIIEEDDQGETTLASGCMKYEGSDFQCKDSPKAQLRRTIECCRTNLCNQYLQPTLPPVVIGPFFDGSIR
chain 2: SASSRRRQQSRNRSTQSQDVARVSSASDYNSSELKTACRKHELYVSFQDLGWQDWIIAPKGYAANYCDGECSFPLNAHMNATNHAIVQTLVHLMNPEYVPKPCCAPTKLNAISVLYFDDNSNVILKKYRNMVVRACGCH

Variants of: B1
Test: SPR; top curve of the analyte series, read at the end of association (about 300 s); analyte concentrations not given; receptor-Fc captured by anti-human antibody; read off a plot

Row | Variant | response
1 | chain 1 D46G | ~9.5 RLU
